According to the supplement of paper PMC9732359:
± gives the uncertainty stated by the source.

Assay: protein stability index of a GFP-peptide fusion (yeast GPS) (PSI 1-4); higher = more stable; sorted into four equal gates, so the index is relative within each strain
Details: pdr5∆
Procedure, shortened: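 Peptides tiling yeast proteins in 17-residue segments were fused downstream of GFP, with Cherry expressed from the same plasmid. As a pooled library in yeast, mid-log cultures grown in leucine-free medium were sorted into four equal gates by GFP/Cherry fluorescence ratio. Gate plasmids were PCR-amplified and Illumina-sequenced, and barcodes linked reads to strains. Each peptide received a protein stability index equal to the sum of each gate's read frequency times its gate number.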

QDRHVIFLAERRILPKP [RPS7A] and QDSIDISIKDNKLVMKS [GAL11] are within error of each other in protein stability index: 2.93 ± 0.12 for the first, 2.77 ± 0.058 for the second.

Going from QEASKQYTKDEQFYTKD [RPN2] to QEHNIQDSNVMPGSQIN [SNF2], the protein stability index falls from 3.3 ± 0.086 to 3.11 ± 0.057.

Same assay, conditions: san1∆

Going from PEEEAAIRRENEWAEDR [SKP1] to PEHLRKIINTHSDMASK [PRP8], the protein stability index falls from 3.34 ± 0.05 to 2.15 ± 0.097.

Compared with PELGDKFSSRHGQKGVC [RET1], PEMSNLYRLSTPLRDEV [PRP8] is lower in protein stability index: 2.99 ± 0.14 for the first, 2.56 ± 0.044 for the second.

Compared with PESIRQKKARTILQHLS [PRP8], PEYGRIIASASYDKTVK [YGL100W/SEH1] is higher in protein stability index: 1.12 ± 0.21 for the first, 3.03 ± 0.087 for the second.

Going from PFDDDEPPLSYEQHIEN [PRP8] to PFKVFLDIGLQRTTTGA [RPL5], the protein stability index falls from 3.06 ± 0.07 to 2.23 ± 0.076.

Compared with PGDGSSYINVTFRAVVF [RPC25], PGDVLDKDAFIPKLKPA [SNU114] is lower in protein stability index: 2.4 ± 0.077 for the first, 1.2 ± 0.18 for the second.

Going from PGHSLLLSIKLPGKVNT [SNF5] to PGHVNFMDETAVALAAS [SNU114], the protein stability index rises from 2.08 ± 0.058 to 2.29 ± 0.073.

Going from PGIMLRQMNLVITLLNN [YCS4] to PGTIVLYAERVQDRGLS [RPS3], the protein stability index rises from 1.14 ± 0.13 to 2.62 ± 0.085.

Compared with PGTVLILLAGRFRGKRV [RPL6A], PHIQKMLSILEIFKKGY [POP6] is higher in protein stability index: 1.66 ± 0.11 for the first, 3.1 ± 0.091 for the second.

Compared with PIFDYIHIDALELAGMD [SIR3], PIRINSTEEIEYIELEY [YMR129W/POM152] is higher in protein stability index: 2.05 ± 0.064 for the first, 2.68 ± 0.091 for the second.

Going from PKAVVDHINGSGKRKPT [GAL11] to PKDYIKKLLEVHDIFSK [CDC53], the protein stability index rises from 1.52 ± 0.11 to 1.75 ± 0.099.

Going from PKFFLGEENRVRFIGDS [QCR2] to PKLKEGALHFVQQSEKL [YIL149C/MLP2], the protein stability index falls from 3.07 ± 0.073 to 2.31 ± 0.066.

Going from PKLKRIGLVKCTQMTDE [GRR1] to PKMGVSSSSLECATCHG [RPO31], the protein stability index rises from 2.81 ± 0.057 to 3.32 ± 0.097.

Going from PKNFGIGQAVQPKRNLS [RPL8A] to PKSKSLPNEMSQNDGFV [RPO31], the protein stability index rises from 2.78 ± 0.043 to 3.38 ± 0.12.

PLGVILTFVSVDEELGP [SCL1] and PLHLIFAQPVADIENST [SSN2] are within error of each other in protein stability index: 2.67 ± 0.052 for the first, 2.72 ± 0.13 for the second.

First: PLILTPPQLANQQQPPQ [SNF11]
Second: PLIMATCGSKGSTLNVS [RPO31]
The protein stability index of the first is lower: 2.04 ± 0.093 for the first, 2.54 ± 0.1 for the second.

Compared with PLNKPLLTEELAKSGST [TAF14], PLPICHANSVVALTGLL [YML031W/NDC1] is lower in protein stability index: 2.94 ± 0.072 for the first, 2.58 ± 0.099 for the second.

First: PLQNIHVRKVKLLKQPK [RPS1A]
Second: PLQSMDIEQLEYSRDCF [RPB3]
The protein stability index of the first is lower: 2.71 ± 0.051 for the first, 3.21 ± 0.08 for the second.

Compared with PLSDLKKRSQAKMNAKT [RPC82], PLVAHLGLYVGVDDQIL [YJL039C/NUP192] is lower in protein stability index: 3.05 ± 0.066 for the first, 2.26 ± 0.11 for the second.

Compared with PMLMANNDVFTIGPYRA [SSN3], PNALKPLSESLRLVDDD [RRP6] is lower in protein stability index: 3.13 ± 0.072 for the first, 2.82 ± 0.093 for the second.

PNDSNDEKVTILVDSLT [SWI1] and PNGEGSKTWETYEMRIH [RPS20] are within error of each other in protein stability index: 3.01 ± 0.071 for the first, 3.05 ± 0.095 for the second.

Compared with PNIVEIDLDNDEDDDED [DLS1], PNSGTATTGGFGANQAT [YGR119C/NUP57] is lower in protein stability index: 2.89 ± 0.1 for the first, 2.12 ± 0.091 for the second.

First: PNTSDNNNNSNNHNMRN [SWI1]
Second: PPGTGKTLCARAVANRT [RPT1]
The protein stability index of the first is higher: 2.93 ± 0.046 for the first, 1.37 ± 0.18 for the second.

Compared with PPGYEIEELDNPMVPSS [PRP8], PPQQTYHFPIFNKYADP [RPN4] is lower in protein stability index: 3.26 ± 0.085 for the first, 2.59 ± 0.034 for the second.

In the case of PPSKHSTLTLSDSEDSD [ESC2], the protein stability index is reported as 2.59 ± 0.071.
